Reference: patent publication US20230331828A1 (published 2023)
Residue numbers refer to the chain shown, from its start.

B1: h2731 (antibody, V domains shown)
VH: EVQLLESGGGLVQPGGSLRLSCAASGFTFSNYGMSWVRQAPGKGLEWVASIRSGSGRTYYSDNVKGRFTISRDNSKNTLYLQMNSLRAEDTAVYYCVRYDHYSGSSDYWGQGTLVTVSS
VL: DVVMTQSPLSLPVTLGEPASISCKSSQSLLDYDGKTYLNWLLQKPGQSPQRLIYRVTNRDTGVPDRFSGSGSGTDFTLKISRVEAEDVGVYYCWQGTHFPRSFGQGTKVEIK
B2: h2726 (antibody, V domains shown)
VH: B1 VH
VL: B1 VL with L15P, R55K, T57S, T61S, S102T
B3: h2931 (antibody, V domains shown)
VH: B1 VH with Y32F, I51V, S103T, S105T
VL: B1 VL
B4: h2831 (antibody, V domains shown)
VH: B1 VH with Y32F, I51V, S105T
VL: B1 VL

How the values were obtained:
[1] = target: aggregated Aβ42 (heterogeneous Aβ 42 aggregate mixture); assay: competition ELISA; FIG 20A
aggregated Aβ42 (heterogeneous Aβ 42 aggregate mixture), sequence (P05067 672-713): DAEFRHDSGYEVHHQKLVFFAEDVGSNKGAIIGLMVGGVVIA

[2] = target: aggregated Aβ42 (heterogeneous Aβ 42 aggregate mixture); assay: competition ELISA; FIG 5A; competition with HBP biotin
[3] = target: aggregated Aβ42 (heterogeneous Aβ 42 aggregate mixture); assay: competition ELISA; FIG 20B
[4] = target: aggregated Aβ42 (heterogeneous Aβ 42 aggregate mixture); assay: competition ELISA; FIG 5B; competition with HBP biotin

| Binder | IC50 [1] | IC50 [2] | IC50 [3] | IC50 [4] |
| --- | --- | --- | --- | --- |
| B1 | 5 mg/L | 4.76 mg/L |  |  |
| B2 |  |  | 9 mg/L | 8.41 mg/L |
| B3 |  | 6.27 mg/L |  |  |
| B4 |  |  | 9.9 mg/L | 9.02 mg/L |
